Reference: patent US20200038505A1

Target: EBVgp350/220 wild type (full length, BLLF1, EBV strain B95-8) (Epstein-Barr virus strain B95-8) (UniProt P03200)
Assay: cell-based or functional assay

UniProt P03200, sequence (P03200 whole entry): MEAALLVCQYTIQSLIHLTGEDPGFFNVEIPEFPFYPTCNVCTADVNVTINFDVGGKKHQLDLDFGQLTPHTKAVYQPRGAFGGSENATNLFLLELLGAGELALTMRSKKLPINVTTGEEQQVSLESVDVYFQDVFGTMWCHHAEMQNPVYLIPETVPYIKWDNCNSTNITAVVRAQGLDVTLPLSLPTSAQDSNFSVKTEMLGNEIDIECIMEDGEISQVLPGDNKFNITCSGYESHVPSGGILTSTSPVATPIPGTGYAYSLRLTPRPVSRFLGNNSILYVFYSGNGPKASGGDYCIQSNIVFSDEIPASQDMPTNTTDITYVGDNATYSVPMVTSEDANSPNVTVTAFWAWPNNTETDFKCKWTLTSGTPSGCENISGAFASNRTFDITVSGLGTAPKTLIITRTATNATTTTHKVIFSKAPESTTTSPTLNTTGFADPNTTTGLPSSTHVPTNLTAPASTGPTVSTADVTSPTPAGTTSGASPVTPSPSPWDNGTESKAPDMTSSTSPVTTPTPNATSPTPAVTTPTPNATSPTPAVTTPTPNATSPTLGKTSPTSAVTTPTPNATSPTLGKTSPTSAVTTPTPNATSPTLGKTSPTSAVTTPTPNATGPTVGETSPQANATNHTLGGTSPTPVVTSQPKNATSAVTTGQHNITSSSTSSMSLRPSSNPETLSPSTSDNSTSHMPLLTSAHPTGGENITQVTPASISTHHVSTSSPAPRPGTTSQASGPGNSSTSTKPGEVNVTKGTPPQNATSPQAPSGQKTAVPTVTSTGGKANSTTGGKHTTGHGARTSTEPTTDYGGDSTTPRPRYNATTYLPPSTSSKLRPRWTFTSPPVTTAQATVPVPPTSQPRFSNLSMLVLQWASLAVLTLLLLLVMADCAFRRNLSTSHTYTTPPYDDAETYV

In the case of “monoclonal antibody mAb-2L10 anti-gp350/220”, the percent fluorescent (EGFP+) Raji cells after infection with EGFP-EBV pre-incubated with the antibody is reported as 27% and the percent of EGFP+ Raji cells post-infection is reported as 25%.
In the case of “monoclonal antibody mAb-72A1 anti-gp350/220”, the percent fluorescent (EGFP+) Raji cells after infection with EGFP-EBV pre-incubated with the antibody is reported as 1%.
